Reference: article PMC4948773, “Identification of Preferred DNA-Binding Sites for the Thermus thermophilus Transcriptional Regulator SbtR by the Combinatorial Approach REPSA” (PLoS ONE, 2016)

T1: SbtR (Thermus thermophilus HB8, UniProt Q5SLX6 1-189)
T1 sequence: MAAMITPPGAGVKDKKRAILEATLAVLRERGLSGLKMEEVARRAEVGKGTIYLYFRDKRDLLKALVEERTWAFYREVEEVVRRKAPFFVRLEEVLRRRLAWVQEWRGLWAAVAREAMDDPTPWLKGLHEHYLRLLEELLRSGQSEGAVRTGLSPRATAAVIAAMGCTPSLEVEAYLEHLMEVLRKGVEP


Key:
SbtR [1] = target: T1, SbtR; assay: BLI; EMSA/REPA: 50 mM K acetate, 20 mM Tris acetate, 10 mM Mg acetate, BSA (CutSmart), pH 7.9, binding 55 C 20 min (REPA cleavage 37 C); BLI: 20 mM Tris-Cl pH 7.7, 100 mM NaCl, 1 mM EDTA, 0.05% Tween 20, 30 C (hydration step; binding temperature not separately stated); concentrations as SbtR dimer; settings: protein: recombinant; tags: none stated (pET-11a, wild-type); chain copies: 2; label: 5' biotin-dT on strand 2 (extra 5' T in primer)
SbtR [2] = target: T1, SbtR; assay: EMSA; S1 complex, apparent; EMSA/REPA: 50 mM K acetate, 20 mM Tris acetate, 10 mM Mg acetate, BSA (CutSmart), pH 7.9, binding 55 C 20 min (REPA cleavage 37 C); BLI: 20 mM Tris-Cl pH 7.7, 100 mM NaCl, 1 mM EDTA, 0.05% Tween 20, 30 C (hydration step; binding temperature not separately stated); concentrations as SbtR dimer; settings: protein: recombinant; tags: none stated (pET-11a, wild-type); chain copies: 2; label: 5' IRDye700 on strand 1; blunt
[3] = target: the molecule itself; assay: SDS-PAGE with and without reductant; Coomassie-stained 4-20% SDS-PAGE gradient gel; purified SbtR loaded under standard reducing conditions or under oxidizing conditions (Laemmli loading buffer lacking reductant)

Row | Binder | Kd (SbtR [1]) [nM] | also measured
1 | m1 (dsDNA) DNA 1: CTAGGAATTCGTGCAGAGGTGAATAGACTGGCCAGTCATTACCATCCCTCCAGAAGCTTGGAC DNA 2: GTCCAAGCTTCTGGAGGGATGGTAATGACTGGCCAGTCTATTCACCTCTGCACGAATTCCTAG | 0.551 | 
2 | m7 (dsDNA) DNA 1: CTAGGAATTCGTGCAGAGGTGAATTGACTGCCCAGTCATTACCATCCCTCCAGAAGCTTGGAC DNA 2: GTCCAAGCTTCTGGAGGGATGGTAATGACTGGGCAGTCAATTCACCTCTGCACGAATTCCTAG | 0.839 | 
3 | m6 (dsDNA) DNA 1: CTAGGAATTCGTGCAGAGGTGAATTGACTCGCCAGTCATTACCATCCCTCCAGAAGCTTGGAC DNA 2: GTCCAAGCTTCTGGAGGGATGGTAATGACTGGCGAGTCAATTCACCTCTGCACGAATTCCTAG | 0.159 | 
4 | m5 (dsDNA) DNA 1: CTAGGAATTCGTGCAGAGGTGAATTGACAGGCCAGTCATTACCATCCCTCCAGAAGCTTGGAC DNA 2: GTCCAAGCTTCTGGAGGGATGGTAATGACTGGCCTGTCAATTCACCTCTGCACGAATTCCTAG | 15.5 | 
5 | m4 (dsDNA) DNA 1: CTAGGAATTCGTGCAGAGGTGAATTGAGTGGCCAGTCATTACCATCCCTCCAGAAGCTTGGAC DNA 2: GTCCAAGCTTCTGGAGGGATGGTAATGACTGGCCACTCAATTCACCTCTGCACGAATTCCTAG | 1.24 | 
6 | m2 (dsDNA) DNA 1: CTAGGAATTCGTGCAGAGGTGAATTCACTGGCCAGTCATTACCATCCCTCCAGAAGCTTGGAC DNA 2: GTCCAAGCTTCTGGAGGGATGGTAATGACTGGCCAGTGAATTCACCTCTGCACGAATTCCTAG | 7.11 | 
7 | m3 (dsDNA) DNA 1: CTAGGAATTCGTGCAGAGGTGAATTGTCTGGCCAGTCATTACCATCCCTCCAGAAGCTTGGAC DNA 2: GTCCAAGCTTCTGGAGGGATGGTAATGACTGGCCAGACAATTCACCTCTGCACGAATTCCTAG | 2.18 | 
8 | SbtR mini probe 22-bp (dsDNA) DNA 1: GCCCTGACTGGCCAGTCACCCG DNA 2: CGGGTGACTGGCCAGTCAGGGC |  | Kd (SbtR [2]): 5 nM
9 | SbtR, transcriptional regulator encoded by the Thermus thermophilus HB8 TTHA0167 gene (natural protein, UniProt Q5SLX6 1-189, looked up, intermolecular disulfide bond (disulfide-linked dimeric species), SbtR, TetR/AcrR family transcriptional regulator, Thermus thermophilus HB8, TTHA0167 (sbtR) gene in pET-11a; 189 amino acid residues, 21,539 Da; called wild-type SbtR; It says the plasmid holds the TTHA0167 gene and reckons the stock concentration from the 189-residue protein; also called SbtR2; SbtR dimer; source: E. coli BL21(DE3) with pET-sbtR, IPTG-induced; soluble extract heated at 70°C for …) MAAMITPPGAGVKDKKRAILEATLAVLRERGLSGLKMEEVARRAEVGKGTIYLYFRDKRDLLKALVEERTWAFYREVEEVVRRKAPFFVRLEEVLRRRLAWVQEWRGLWAAVAREAMDDPTPWLKGLHEHYLRLLEELLRSGQSEGAVRTGLSPRATAAVIAAMGCTPSLEVEAYLEHLMEVLRKGVEP |  | stoichiometry N [3]: 2
